{"source": "patent US20060140858A1", "about": "“Drug pre-targeting by means of bi-specific antibodies and hapten constructs comprising a carrier peptide and the active agent(s)” (Immunomedics, Inc., priority 2002, published 2006)", "test_system": "GW-39 tumor xenografts", "test": "Pretargeting: I-125 F6 × 734-F(ab′)2, 72 h later In-111-IMP-224, biodistribution"}
{"smiles": "COc1cccc2c1C(=O)c1c(O)c3c(c(O)c1C2=O)C[C@@](O)(C(CO)=NNc1ccc(C(=O)N[C@@H](CCCCNC(=O)CN(CCN(CCN(CC(=O)O)CC(=O)O)CC(=O)O)CC(=O)O)C(=O)N[C@@H](Cc2ccc(O)cc2)C(=O)N[C@@H](CCCCNC(=O)CN(CCN(CCN(CC(=O)O)CC(=O)O)CC(=O)O)CC(=O)O)C(N)=O)cc1)C[C@@H]3O[C@H]1C[C@H](N)[C@H](O)[C@H](C)O1", "note": "[IMP 224, Dox = N—NH—C6H4—CO-Lys(DTPA)-Tyr-Lys(DTPA)-NH2]", "values": [{"measurement": "% ID/g tissue", "setting": "GW-39, 1 h", "value": "10.3 ± 1.7", "unit": "% ID/g"}, {"measurement": "% ID/g tissue", "setting": "GW-39, 4 h", "value": "11.0 ± 2.0", "unit": "% ID/g"}, {"measurement": "% ID/g tissue", "setting": "GW-39, 24 h", "value": "9.7 ± 1.1", "unit": "% ID/g"}, {"measurement": "% ID/g tissue", "setting": "Liver, 1 h", "value": "0.4 ± 0.1", "unit": "% ID/g"}, {"measurement": "% ID/g tissue", "setting": "Liver, 4 h", "value": "0.3 ± 0.0", "unit": "% ID/g"}, {"measurement": "% ID/g tissue", "setting": "Liver, 24 h", "value": "0.3 ± 0.0", "unit": "% ID/g"}, {"measurement": "% ID/g tissue", "setting": "Muscle, 4 h", "value": "0.0 ± 0.0", "unit": "% ID/g"}, {"measurement": "% ID/g tissue", "setting": "Muscle, 24 h", "value": "0.0 ± 0.0", "unit": "% ID/g"}, {"measurement": "tumor-to-normal organ ratio", "setting": "Small Int., 1 h", "value": "31.9 ± 18"}, {"measurement": "% ID/g tissue", "setting": "Spleen, 1 h", "value": "0.4 ± 0.1", "unit": "% ID/g"}, {"measurement": "% ID/g tissue", "setting": "Spleen, 4 h", "value": "0.2 ± 0.0", "unit": "% ID/g"}, {"measurement": "% ID/g tissue", "setting": "Spleen, 24 h", "value": "0.2 ± 0.0", "unit": "% ID/g"}, {"measurement": "% ID/g tissue", "setting": "Tail, 1 h", "value": "1.1 ± 0.2", "unit": "% ID/g"}, {"measurement": "% ID/g tissue", "setting": "Tail, 4 h", "value": "0.4 ± 0.1", "unit": "% ID/g"}, {"measurement": "% ID/g tissue", "setting": "Tail, 24 h", "value": "0.2 ± 0.0", "unit": "% ID/g"}, {"measurement": "% ID/g tissue", "setting": "Urine, 1 h", "value": "168 ± 106", "unit": "% ID/g"}, {"measurement": "% ID/g tissue", "setting": "Urine, 4 h", "value": "31.8 ± 31", "unit": "% ID/g"}, {"measurement": "% ID/g tissue", "setting": "Urine, 24 h", "value": "1.2 ± 0.2", "unit": "% ID/g"}]}
